Data set [1] concerns the target recombinant Human Pyruvate Dehydrogenase E1-alpha subunit protein (Abcam) (UniProt P08559).
For data set [2], the system named is purified recombinant His-tagged PDK1 (Abcam).
purified recombinant His-tagged PDK1 (Abcam), sequence (chain, as listed by the source): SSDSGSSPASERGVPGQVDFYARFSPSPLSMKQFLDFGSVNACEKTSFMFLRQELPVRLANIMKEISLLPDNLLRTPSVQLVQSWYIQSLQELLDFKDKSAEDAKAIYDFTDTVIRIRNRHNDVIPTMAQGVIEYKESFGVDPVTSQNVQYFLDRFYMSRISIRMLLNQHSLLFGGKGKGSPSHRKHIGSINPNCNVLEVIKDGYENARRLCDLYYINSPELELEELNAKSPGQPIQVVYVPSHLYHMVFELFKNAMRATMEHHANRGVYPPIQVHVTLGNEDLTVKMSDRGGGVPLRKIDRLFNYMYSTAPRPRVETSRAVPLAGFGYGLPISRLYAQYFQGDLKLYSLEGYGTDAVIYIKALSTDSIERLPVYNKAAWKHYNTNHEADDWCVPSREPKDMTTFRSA

recombinant Human Pyruvate Dehydrogenase E1-alpha subunit protein (Abcam), sequence (P08559 30-390): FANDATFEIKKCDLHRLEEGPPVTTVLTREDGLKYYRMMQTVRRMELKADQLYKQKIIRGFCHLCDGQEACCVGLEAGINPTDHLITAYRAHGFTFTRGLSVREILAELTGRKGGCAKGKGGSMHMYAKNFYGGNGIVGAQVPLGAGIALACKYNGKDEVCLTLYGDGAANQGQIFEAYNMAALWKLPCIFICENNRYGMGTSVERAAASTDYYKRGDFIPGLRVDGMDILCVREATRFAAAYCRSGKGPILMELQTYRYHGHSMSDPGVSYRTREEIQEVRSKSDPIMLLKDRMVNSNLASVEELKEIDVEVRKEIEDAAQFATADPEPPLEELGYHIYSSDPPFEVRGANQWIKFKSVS
purified recombinant His-tagged PDK4 (Abcam), sequence (chain, as listed by the source): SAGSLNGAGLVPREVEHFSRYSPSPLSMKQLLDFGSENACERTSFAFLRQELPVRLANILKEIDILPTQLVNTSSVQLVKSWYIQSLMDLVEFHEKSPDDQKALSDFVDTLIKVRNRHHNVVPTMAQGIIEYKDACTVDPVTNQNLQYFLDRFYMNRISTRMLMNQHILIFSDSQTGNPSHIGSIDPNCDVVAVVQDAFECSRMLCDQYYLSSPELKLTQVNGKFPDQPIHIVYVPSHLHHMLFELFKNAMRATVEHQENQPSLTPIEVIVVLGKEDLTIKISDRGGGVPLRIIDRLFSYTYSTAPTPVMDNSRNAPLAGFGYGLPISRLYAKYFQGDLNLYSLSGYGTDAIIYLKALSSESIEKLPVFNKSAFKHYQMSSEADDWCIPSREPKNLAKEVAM
Flag-tagged T346A PDK1 mutant, sequence (chain, as listed by the source T346A): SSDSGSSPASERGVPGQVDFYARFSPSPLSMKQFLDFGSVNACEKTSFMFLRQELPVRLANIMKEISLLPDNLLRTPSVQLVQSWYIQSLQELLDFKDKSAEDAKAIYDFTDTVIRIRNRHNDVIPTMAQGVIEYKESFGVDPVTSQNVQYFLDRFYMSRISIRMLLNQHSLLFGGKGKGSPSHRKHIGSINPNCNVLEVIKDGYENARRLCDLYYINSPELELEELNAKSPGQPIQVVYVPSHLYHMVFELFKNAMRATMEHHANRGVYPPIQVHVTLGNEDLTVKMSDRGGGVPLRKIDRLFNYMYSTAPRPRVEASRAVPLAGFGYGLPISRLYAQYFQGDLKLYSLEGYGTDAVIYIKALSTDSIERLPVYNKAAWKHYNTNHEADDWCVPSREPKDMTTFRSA

Regarding Flag-tagged T346A PDK1 mutant, the “PDHE1 phosphorylation by Flag immune complexes mixed with recombinant Akt2 and PDHE1, Western blotting” value in data set [1] is “T346A PDK1 mutant was ineffective”. Still for that read-out and setting: the entry for “Flag-tagged wild type (WT) PDK1 phosphorylated on T346 (by active Akt2 in a kinase assay, or as precipitated from hypoxic PC3 cells)” is “WT PDK1 phosphorylated PDHE1 in the presence of Akt2”.

Turning to kinase active Akt1 (SignalChem), in data set [2], the “phosphorylation in a kinase assay, Western blotting with Akt cons Ab” value is listed as “active Akt1 or Akt2 readily phosphorylated PDK1” and the “phosphorylation site by LC-MS/MS of chymotrypsin digests after a kinase assay” value is recorded as “Thr346 (T346) was identified ... as the sole phospho-amino acid modified by Akt1 or Akt2, compared to control”. Consider “purified recombinant His-tagged PDK1 (Abcam)”, for which the “PDHE1 phosphorylation in a kinase assay with recombinant proteins, Western blotting” value in data set [1] was “active Akt2 increased PDK1 phosphorylation of PDHE1”.

For “purified recombinant His-tagged PDK2 (Abcam)”, in data set [1], the “PDHE1 phosphorylation in a kinase assay with active Akt2, Western blotting” value was “increased PDHE1 phosphorylation was detected only in the presence of Akt2 and PDK1, but not PDK2, PDK3 or PDK4”.

As for “purified recombinant His-tagged PDK3 (Abcam)”, the “PDHE1 phosphorylation in a kinase assay with active Akt2, Western blotting” value in data set [1] was “increased PDHE1 phosphorylation was detected only in the presence of Akt2 and PDK1, but not PDK2, PDK3 or PDK4”.

Take “purified recombinant His-tagged PDK4 (Abcam)”: in data set [1], the “PDHE1 phosphorylation in a kinase assay with active Akt2, Western blotting” value was “increased PDHE1 phosphorylation was detected only in the presence of Akt2 and PDK1, but not PDK2, PDK3 or PDK4”.

The values are drawn from US20190177411.
